# Measured values reported in the nanobody polyreactivity screen of Harvey et al. (2022).
# Assay: yeast display, Sf9 membrane polyspecificity reagent, FACS + sequencing; frameworks hold sequencing errors
# Procedure, shortened: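 Synthetic nanobody libraries on Saccharomyces cerevisiae BJ5465 were galactose-induced for 36–48 hours, stained 1 hour at 4 °C with 10% biotinylated, detergent-solubilized Sf9 membrane reagent and enriched on streptavidin microbeads. FACS then separated cells into low and high (top ~1%) gates by anti-HA (expression) and streptavidin (reagent binding) fluorescence. Genes were colony-PCR amplified, MiSeq 2 × 250 sequenced and CDR-length filtered. A clone's polyreactivity label is that of its gate of origin.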
row,Sequence,polyreactivity (PSR sort gate)
1,QVQLVESGGGLVQAGGSLRLSCAASGFTLRANAMGWYRQAPGKERELVAAITRTGGRTYYADSVKGRFTISRDNAKNTVYLQMNSLKPEDTAVYYCAADHGPSKWYDYWGQGTEVTVSS,low polyreactivity
2,QVQLVESGGGLVQAGGSLRLSCAASGSTFIAYTMGWYRQAPGKERELVAAITWSGGGTYYADSVKGRFTISRDNAKNTVYLQMNSLKPEDTAVYYCAKRGWRGYYWGQGTQVTVSS,high polyreactivity
3,QVQLVESGGGLVQAGGSLRLSCAASGYTFYVYAMGWYRQAPGTERELVADISTSDGSTYYADSVKGRFTISRDNAKNTVYLQMNSLKPEDTAVYYCNTDGSHGLYDWFWPANNDYWGQGTQVTVSS,low polyreactivity
4,QVQLVESGGGLVQAGGSLRLSCAASGRIYSYYARGWYRPAPGKERELVAAISRTGGTTYYADSVKGRFTISRDNAKNTVYLQMNSLKPEDTAVYYCAASGGYRPHRYQIGDYDYWGQGTQVTVSS,high polyreactivity
5,QVQHVESGGGLVQAGGSLRLSCPASGIIFDYYAMGWYRQAPGKERELVATITSGGSTNYADSVKGRFTISRDNAKNTVYLQMNSLKPEDTAVYYCAARTYWFPDIYPGLGMDYWGQGTQVTVSS,low polyreactivity
6,QVQLVESGGGLVQAGGSLRLSCAASGIIFYSYVMGWYRQAPGKERELVAVISRSGGRTYYADSVKGRFTISRDNAKNTVYLQMISLKPEDTAVYYWAAALGVALNDYWGQGTQVTVSS,high polyreactivity
7,QVQLVESGGGLVQAGGSLRLSCAASGCTFLYYMGWYRQAPGKERELVSALTFSGGSTYYADSVKGRFTISRDNAKNTVYLQMNSLKPEDTAVDDGAAGWYDWPKYLLSVYTYYLYDYWGQGSQVTVSS,low polyreactivity
8,HVQLVESGGGLGQAGGSLRLSCAASGSIFYVNAIGWYRQAPGKERELVADITWSGGSTYYADSVKGRFTISRDHAQTTVYLQMNSLKPEDTAVYYCAAKVKHWYYPYYYWGQGTQVTVSS,low polyreactivity
9,QVQIVESGGGLVQAGGSLSLSCAASGRTISWYTMGWYRQAPGKERELVAGISSSGGSTYYADSVKGRFTISRDNAKNTVYLQLNSLKPEDTADYFCAAGDFRYVDRYGDMEYWGQGTQVTVSS,low polyreactivity
10,QVQLVESGGGLVQVGGSLRLSCAASGRTFGRYAMGWYRQAPGKERELVAAINSVARTNYADSVKGRFTISRDNAKNTVYLHMNSLKPEDTAVYYCAARYYYSGVTHAKRIAYYYWGQGTQVTVSS,high polyreactivity
11,QFQLVESGGGLVQAGGSLLLSCAASGRTFDWYAMGWYRLAPGKERELVAGISGSSGRTYYADSVKGRFTISRDNAKNTVYLQMNSLKPEDTAVYYCAADFSFWKLVYYQSGRYDYWGQGTQVTVSS,high polyreactivity
12,QVQLVESGGGLVQAGGSLRLSCAASGSTFPYYAMGWYRLAPGKERELVAAISFRGTRTYYADSVKGRFTISRDNAKNTVYLQMNSLKPEDTAVYYCAADASTYYGTQWASYYYWGQGTQVTVSS,high polyreactivity
13,QVQLEESGGGLVQAGGSLRLSCAASGLTISWNAMGWYRQAPGKERELVAAISSRGGSTYYADSVKARFKISRDNAKNTVYLQMNSLKPEETAVYYCAAEGYTYYPVYSTRMYYWGQGTQVTVLS,low polyreactivity
14,QVQLVESGGGLVQAGGSLRISCASSGSIFVINAMGWYRQAPGKERELVAAIDWGGDTTYYADSVKGRFTISRDNAKITVYLQMNSLKPEDTAVYYCAADLFLWYEFEYWGQGTQVTVSS,high polyreactivity
15,QVQLVESGGGLVQAGGSLRLSCAASGFIFYGYTMGWYRQAPGKERELLARISRRGGSTYYADSVKGRFTISRDNAKNTVYLQMNSLKPEDTAVYYCATDDARRGYGYGYWGQGPQVTVSS,low polyreactivity
16,QVQLVESGGGLVQAGGSLRLSCAASGRIFDRNAMGWYRQATGKERELVARIDPGDDTNYADSVKGRFTISRDNAKNTVYLLMNSLKPEDTAVYYCATDPDYVLYRTAYYEYDYWGHGTQVTVSS,low polyreactivity
17,QVQLVESGGGLVQAGGSLRLSCAASGRIIYVNAMGWYRQAPGKERELVAAISSRGGTTYYADSVKGRFTISRDNAKNTVYLQMNSLKPEDTAVYYCNAGRVRHGNDYWGQGTQVTVSS,high polyreactivity
18,QVHLVETGGGLVHAGGSLRLSCAASGFIFGVNAMGWYRQAPGKERELDAAITRNGGSTYYADSVKGRFTISRDYAKNTVYLQMNSLKPEDTAVYYCAKYVRRAPSSIDVDYWGQGTQVTVSS,high polyreactivity
19,QVQLVESGGGLVQAGGSLRLSCAASGFTFSRYAMGWYRQAPGKERELVAAITSRGGSTYYADSVKGRFTISRDNAKNTVYLQMNSLKPEDTAVYYCAARGWYATWLYYYWGQGTQVTVSS,high polyreactivity
20,QVQLVESGGGLVQAGGSLRLSCAASGFTFERYAMGWYRQAPGKERELVAAIDWRGVNTYYADSVKGRFTISRDNAKNTVYLQMNSLKPEDTAVYYCNARAYGRYYWGQGTQVTVSS,high polyreactivity
21,QVQLVESGGGLVQAGGSLRLSCAASGRTFWSNAMGSYRQAPGKERELVAAINTSGGNTYYADSVKGRFTISRDNAKNTVYLQMNSLKPEDTAVYFCNTDGLVRNGPFYSWGQGTQVTVSS,low polyreactivity
22,QVHLVESGGGFVQAGGSLRLSCAASGSIFWLYAMGWYRHAPGKERELVAAISWSTGGTYYADSVKGRFTISRDNAKNTVYLQMNSLKPEDTAVYYCNADTYDQYNYWGQGTQVTVSS,low polyreactivity
